According to US20240182536A1 (MURAL ONCOLOGY, published 2024):
Substitutions are numbered along the chain they refer to. Numbers in names are those of the source.

T1: IL-18 receptors on HEK-Blue IL-18 reporter cells (UniProt Q13478 19-541; O95256 20-599, limits assumed)
T1 sequence (looked up) 1: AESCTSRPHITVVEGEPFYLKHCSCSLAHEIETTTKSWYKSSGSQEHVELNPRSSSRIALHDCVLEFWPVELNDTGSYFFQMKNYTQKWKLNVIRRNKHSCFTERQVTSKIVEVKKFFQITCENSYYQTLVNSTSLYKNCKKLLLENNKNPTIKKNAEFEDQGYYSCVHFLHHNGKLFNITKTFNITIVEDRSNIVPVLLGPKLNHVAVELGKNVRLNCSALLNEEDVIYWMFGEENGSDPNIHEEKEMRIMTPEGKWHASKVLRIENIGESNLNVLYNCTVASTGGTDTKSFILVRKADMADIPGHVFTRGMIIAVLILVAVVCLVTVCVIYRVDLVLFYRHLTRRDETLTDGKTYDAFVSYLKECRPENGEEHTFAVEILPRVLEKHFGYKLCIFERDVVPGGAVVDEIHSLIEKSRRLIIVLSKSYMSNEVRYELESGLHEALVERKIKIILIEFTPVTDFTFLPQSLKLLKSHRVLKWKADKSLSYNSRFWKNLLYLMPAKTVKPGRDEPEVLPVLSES
T1 sequence (looked up) 2: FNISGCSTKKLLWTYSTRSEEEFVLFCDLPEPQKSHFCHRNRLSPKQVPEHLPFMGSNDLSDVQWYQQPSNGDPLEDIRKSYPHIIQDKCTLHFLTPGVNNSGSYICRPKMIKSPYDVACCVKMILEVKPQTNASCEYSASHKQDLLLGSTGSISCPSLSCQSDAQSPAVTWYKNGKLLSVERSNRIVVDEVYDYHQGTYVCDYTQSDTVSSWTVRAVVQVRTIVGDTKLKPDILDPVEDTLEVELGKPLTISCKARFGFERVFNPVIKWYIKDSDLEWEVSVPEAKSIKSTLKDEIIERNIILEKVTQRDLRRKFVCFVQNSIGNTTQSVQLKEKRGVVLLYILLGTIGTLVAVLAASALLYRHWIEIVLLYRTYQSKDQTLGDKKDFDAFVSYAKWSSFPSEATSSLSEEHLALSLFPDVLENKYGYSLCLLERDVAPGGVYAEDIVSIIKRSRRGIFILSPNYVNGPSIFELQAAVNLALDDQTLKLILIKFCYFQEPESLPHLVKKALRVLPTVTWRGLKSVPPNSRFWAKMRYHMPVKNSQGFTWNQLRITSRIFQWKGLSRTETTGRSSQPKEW

T2: interleukin 18 binding protein (IL-18BP) (UniProt O95998 31-194)
T2 sequence (looked up): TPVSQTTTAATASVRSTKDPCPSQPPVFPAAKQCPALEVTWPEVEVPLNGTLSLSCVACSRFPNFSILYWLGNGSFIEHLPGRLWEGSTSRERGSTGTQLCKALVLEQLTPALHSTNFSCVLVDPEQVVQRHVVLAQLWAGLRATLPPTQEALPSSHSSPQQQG

B1: IL-18 variant K53H, S55R (ligand)
chain: YFGKLESKLSVIRNLNDQVLFIDQGNRPLFEDMTDSDMRDNAPRTIFIISMYHDRQPRGMAVTISVKSEKISTLSSENKIISFKEMNPPDNIKDTKSDIIFFQRSVPGHDNKMQFESSSYEGYFLASEKERDLFKLILKKEDELGDRSIMFTVQNED
B2: IL-18 variant K53G, S55I, R104K, P107Y (ligand)
chain: B1 chain with H53G, R55I, R104K, P107Y
B3: IL-18 variant K8R, L9G, S10C, K53G, S55A, R104G (ligand)
chain: B1 chain with K8R, L9G, S10C, H53G, R55A, R104G
B4: IL-18 variant S36F, N41E, K53W (ligand)
chain: B1 chain with S36F, N41E, H53W, R55S
B5: IL-18 variant T34N, S36N, D40E, N41G, K53S, S55Q, R104N, H109Y (ligand)
chain: B1 chain with T34N, S36N, D40E, N41G, H53S, R55Q, R104N, H109Y
B6: IL-18 variant T34S, S36L, D37E, D40Y, N41M, K53T, S55K, P107K, H109Q (ligand)
chain: B1 chain with T34S, S36L, D37E, D40Y, N41M, H53T, R55K, P107K, H109Q
B7: IL-18 variant S36E, D37E, D40V, N41S, K53Y, S55V, H109Y (ligand)
chain: B1 chain with S36E, D37E, D40V, N41S, H53Y, R55V, H109Y
B8: IL-18 variant K53H, S55H, N87D, H109I (ligand)
chain: B1 chain with R55H, N87D, H109I
B9: IL-18 variant K53D, S55L (ligand)
chain: B1 chain with H53D, R55L
B10: IL-18 variant L15I, K53H, S55M (ligand)
chain: B1 chain with L15I, R55M
B11: IL-18 variant T34S, S36Y, D37N, D40E, N41Q, K53Y, S55I (ligand)
chain: B1 chain with T34S, S36Y, D37N, D40E, N41Q, H53Y, R55I
B12: IL-18 variant T34N, S36Y, D40H, N41T, K53G, S55Y (ligand)
chain: B1 chain with T34N, S36Y, D40H, N41T, H53G, R55Y
B13: IL-18 variant K53H, S55Y (ligand)
chain: B1 chain with R55Y
B14: IL-18 variant T34E, S36P, D40A, N41G, K53T, S55R (ligand)
chain: B1 chain with T34E, S36P, D40A, N41G, H53T
B15: IL-18 variant S36Q, D40T, K53P, S55L (ligand)
chain: B1 chain with S36Q, D40T, H53P, R55L
B16: IL-18 variant T34N, S36Y, D37E, D40Q, N41Q, K53D, S55D (ligand)
chain: B1 chain with T34N, S36Y, D37E, D40Q, N41Q, H53D, R55D

Molecular target: T1, IL-18 receptors on HEK-Blue IL-18 …
Assay: cell-based or functional assay

Binder | HEK-Blue activity, No BP, DF-10000 | HEK-Blue activity, No BP, DF-100,000 | HEK-Blue activity, No BP, DF-1,000,000
B1 | 0.12 | 0.1 | 0.09
B2 | 0.1 | 0.09 | 0.09
B3 | 0.1 | 0.13 | 0.1
B4 | 0.09 | 0.1 | 0.09
B5 | 0.09 | 0.09 | 0.08
B6 | 0.11 | 0.1 | 0.09
B7 | 0.09 | 0.09 | 0.09
B8 | 0.11 | 0.1 | 0.09
B9 | 0.11 | 0.09 | 0.09
B10 | 0.11 | 0.1 | 0.09
B11 | 0.09 | 0.09 | 0.09
B12 | 0.12 | 0.1 | 0.09
B13 | 0.09 | 0.09 | 0.09
B14 | 0.09 | 0.1 | 0.09
B15 | 0.09 | 0.13 | 0.08
B16 | 0.11 | 0.09 | 0.09

Molecular target: T2, interleukin 18 binding protein (IL-18BP)
Assay: cell-based or functional assay

Binder | HEK-Blue activity, +100 nM BP, DF-10000 | HEK-Blue activity, +100 nM BP, DF-100,000 | HEK-Blue activity, +100 nM BP, DF-1,000,000 | Ratio (-BP/+BP), DF-10000 | Ratio (-BP/+BP), DF-100,000 | Ratio (-BP/+BP), DF-1,000,000
B1 | 0.12 | 0.09 | 0.09 | 0.97 | 1.09 | 1
B2 | 0.11 | 0.09 | 0.09 | 0.99 | 1 | 0.95
B3 | 0.12 | 0.14 | 0.1 | 0.88 | 0.92 | 1.03
B4 | 0.09 | 0.1 | 0.09 | 1 | 1.01 | 0.91
B5 | 0.09 | 0.09 | 0.09 | 0.95 | 1.01 | 0.95
B6 | 0.1 | 0.1 | 0.09 | 1.11 | 0.98 | 0.98
B7 | 0.09 | 0.1 | 0.1 | 1.03 | 0.92 | 0.89
B8 | 0.1 | 0.1 | 0.1 | 1.1 | 0.96 | 0.88
B9 | 0.1 | 0.09 | 0.09 | 1.02 | 1.03 | 1.01
B10 | 0.12 | 0.1 | 0.08 | 0.9 | 0.99 | 1.02
B11 | 0.09 | 0.09 | 0.12 | 0.98 | 0.96 | 0.75
B12 | 0.11 | 0.09 | 0.09 | 1.08 | 1.02 | 0.97
B13 | 0.1 | 0.1 | 0.11 | 0.91 | 0.99 | 0.8
B14 | 0.1 | 0.09 | 0.09 | 0.98 | 1.01 | 0.96
B15 | 0.09 | 0.09 | 0.09 | 1.09 | 1.44 | 0.9
B16 | 0.1 | 0.1 | 0.09 | 1.11 | 0.96 | 1
